Reference: the nanobody polyreactivity screen of Harvey et al. (2022)

Experiment: yeast display, Sf9 membrane polyspecificity reagent, FACS + sequencing; frameworks hold sequencing errors
Method in brief: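 A nanobody's polyreactivity label depends on the gate it was sorted from. Yeast display cells were stained with 10% biotinylated, detergent-solubilized Sf9 membrane reagent for 1 hour at 4 °C, enriched on streptavidin microbeads and sorted by FACS. The low and high (top ~1%) gates were set on anti-HA fluorescence for expression and streptavidin fluorescence for reagent binding.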

Sequence | polyreactivity (PSR sort gate)
QVQLVETGGGLVQAGGSLRLSCAASGITFGRNTMGWYRQAPGKERELVAAIDSGANTYADSVKGRFTISRDNAKNTVYLQMNSLKPEDTAVYYCAVDGGEFSSYGYWGQATQVTVSS | low polyreactivity
QVQIVESRGGLVQAGGSLRLSCAASGFIIYKYALGWYRQAPRKERELVAAISSSGGNTYYADSVKGRFTNSRDNAKNTVFLQMMSLKPEDTAVYYCAADYYVSKSRYYSYGYWGQGTQVTVSS | high polyreactivity
QVQLVESGAGLVQAGGSLRLSCAASGSTFNHYAMGWYRPAPGKDRELVAAITWSGDSTYYADSVKGRFTISRDNAKNTVYLQMNSLKPEDTAVYDCNTYRIFGYSPYYAGYDYWGQGTQVTVSS | low polyreactivity
QVQLVESGGGLVQAGGSLRLSCAASGSTFDIYAMGWYRQAPGKERKLVAVISGGDGSTYYADSVKGRFTISRDNAKNTVYLQMNSLKPEDTAVYYCEYDYWGQGTQVTVSS | low polyreactivity
QVQLVESGGGLVQAGGSLRLSCAASGSIFDHTNAMGWYRQAPGKERELVAAITSGSSTNYADSVKGRFTISRDNAKNTVYLQMNSLKPEDTAVYYCNADRFHSGIFDYWGQGTQVTVSS | low polyreactivity
QVQLVESGGGLVQAGGSLRLSCAASGSTFIAYTMGWYRQAPGKERELVAAITWSGGGTYYADSVKGRFTISRDNAKNTVYLQMNSLKPEDTAVYYCAKRGWRGYYWGQGTQVTVSS | high polyreactivity
QVQLVESGGGLVQAGGSLRLSCAASGLILYWYAMGWYRQAPGKERELVAAISISGGSTYYADSVKGRFTISRDNAKNTVYLQMNSLKPDDTAVYYSAAVYFYSWEGDGDYWGLGTQVTVSS | low polyreactivity
QVQLVESGGGLVQAGGSLRLSCAASGRTLRHYAMGWYRQAPGKERELVAAISSTGSSTYYADSVKGRFTISRDNAKNTVYLQMNSLKPEDTAVYYCAADKYTWDAGGVDYWGQGTQVTVSS | low polyreactivity
QVQLVESGEGLVQARGSLRLSCAASGYTFLGYAMGWYRQAPGKERELVAAINRSGSSTYYADSVKGRFTISRDNAKNTVYLQMNSLKPEDTAVYYCNARSGNRYGPRYDYWGQGTKVTVSS | high polyreactivity
QVQLVESGGGLVQAGGSLRLSCAASGFILVDYAMGWYRQAPGKERELVAAITYDGGSTYYADSVKGRFTISRDNAKNTVYLQMNSLKPEDTAVYYCAADYGYSQYILGQFRLEELDYWGQGTQVTVSS | low polyreactivity
QVQLVESGGGLVQAGGSLRLSCAASGSTFPFYALGWYRQAPGKERELVAVIRGSGGRTYYADSVKGRFTISRDNAKTTVYLQMNSLKPEDTAVYYCAVKLARLYDSGYNYWGQGTQVTVSS | high polyreactivity
QVQHVESGGGLVQAGGSLRLSCAASGSIFSYYAMGWYRQPPGKERELVATISSGDSTYYADSVKGRFTISRDNAKKTVYLQMNSLKPEDTAVYYCARKPRIRYYPAPYDYWGQGTQVTVSS | low polyreactivity
QVQLVESGGGLVQAGGSLRISCAASGITLYGNVMGWYRQAPGKERELVAAISGGSTFYADSVKGRFTISRDNAKNTVYLQMNSLKPEDTAVYYCAAEWYGYGSNVPYYYWGQGTQVTVSS | low polyreactivity
QVQLVESGGGLVQAGGSLRLSCAASGRIFRWYTMGWYRQAPGKEREFVDAITWSDTSTSYADSVKGRFTISRDNAKNTVYLQMNSLKPEDTAVYYCNAATRSSVTFGWYIEYDYWGQGTQVTVSS | low polyreactivity
QVQLVESGGGLVQAGGSLRLSCAASGSIRYYAMGWYRQAPGKERELVAAISSRGTNTYYADSVKGRFTISRDNAKNTVYLQMNSLKPEDTAVYYCNAVVGLGYNYWGQGTQVTVSS | high polyreactivity
QVQLVESGGGLVQAGGSLRLSCAASGSIFSKNTMGWYRQAPGKEREFVARISVRGGSTYYADSVKGRFTISRDNAKNTVYLQMNSLKPEDTAVYYCNAAHTVTQNSRNSDYWGQGTQVTVSS | high polyreactivity

Sequence | polyreactivity (PSR sort gate)
QVQLVESGGGLVQAGGSLRLSCAASGITFFEYAMGWYRQAPGKERELVAVITSGGSTNYADSVKGRFTISRDNAKNTVYLQMNSLKPEDTAVYYCNARVVKYRWWYDYYYWGQGTQVTVSS | low polyreactivity
QVQLEESAGGLVQAGGSLRLSCAASGSIFFWNDLGWYRQAPGKERELVAAISWSGGSTSYADSVKGRFTISRDNAKNTVYLQMNSLKPEDTAVYYCAADFYYRTLYGYIGMDYWGQGTQVTVSS | low polyreactivity
QVQLVESGGALLQAGGSLRLSCSASGRIFSANAMGWYRPAPGKERELVAAITYSGATTYYADSVKGRFTISRDNAKNTVYLQMTSLKPEDTAVYDCAADAGYTHYTAEEEYWGQGTQVTVSS | low polyreactivity
QVQLVESGGGLVQAGGSLRLSCAASGSIFDYYAMGWYRQAPGKERELVAAISWRGGRTYYADSVKGRFTISRDNAKNTVYLQMNSLKPEDTAVYYCAAYFQRSGFSFRLRGQGTQVTVSS | high polyreactivity
QVQLVESGGGLVQAGGSLRLSCAASGFTFTTYAMGWYRQAPGKERELVARISRRSGSTYYADSVKGRFTISRDNAKYTVYLQMNSLKPEDTAVYYCNADVDRSTTIFDYWGQGTQVTVSS | high polyreactivity
QVQLVESGGGLVQAGGSLRLSCAASGRTFASYTMGWYRQAPGKERELVAAISRGGNTYYADSVKGRFTISRDNAKNTVYLQMNSLKPEDTAVYYCAATAVKYDRRFYYWGQGTQVTVSS | high polyreactivity
QGQHVESGGGLVQAGGRLRLSCAASGSILSGYEMGRSREAPGKERELVASITRGGSTYYADSVKGRFTISRDNANNSVYFQMNSLNPEDPAVYDCARYGSKNRRLGMDYWGQGTQVTVSS | low polyreactivity
QVQLVESGGGLVQAGGSLRLRCAASGRTLWLYTMGWYRQAPGKERELVARIRSGGSTYYADSVKGRFTISRDNAKNTVYLQMNSLKPEDTAVYYCAAYPYWIHYENYYWGQGTQVTVSS | high polyreactivity
QDQHVESGGGLVQAGGSLRLSCSATGRIFTSYVMGWYRQPQGKERQLVAAITRSGGSTYYADSVKVRFTISRDTAKNTVYLQMKSLIPVDTAVYYCNALTRLQIGGEGGGYWGKGTQVTVSS | high polyreactivity
QDQLVESGGCLVQAGGSLPLSCAASVFTFSNNVMGWYRQAPGQVRELVATLSKSGGSTYYAVSVKVRFTISRDKAKNSVYLQMNSLNPEATEVYYCASRFGDYGRFAYWGQGTQVSVSS | high polyreactivity
QVQLVESGGGLVQAGGSLRLSCAASGSIFTLYAMGWYRQAPGKERELVAAITWTGGSTYYADSVKGRFTISRDNAKNTVYLQMNSLKPEDTAVYYCATDGYWQSNGAFYYVARHGGYWGQGTQVTVSS | low polyreactivity
QVQLVESGGGLVQAGGSLRLSCAASGSTFAYYAMGWYRQAPGKERELVAAISYSGGITYYADSVKGRFTISRDNAKNTVYLQMNSLKPEDTAVYYCNKLFAQEFDYWGQGTQVTVSS | high polyreactivity
QVQLVESGGGLVQAGGSLRLSCAASGSIFSIYAMGWYRQAPGKERELVASITRSSGRTYYADSVKGRFTISRDNAKNTVYLQMNSLKPEDTAVYYCAKDYIPLALDADDYWGQGTQVTVSS | low polyreactivity
QVQLVESGGGLVQAGGSLRLSCAASGIIFDTNAMGWYRQAPGKERELVATITQRGGTTYYADSVKGRFTISRDNAKNTVYLQMNSLKPEDTAVYYCNAGPVRLPYDSWGQGTQVTVSS | low polyreactivity
QVQLVESGGGLVQAGGSLRLSCAASGFIFAPNAMGWYRQAPGKERELVAAISHSGASTFYADSVKGRFTISRDYAKNTVYLQMNSLKPEDTAVYYCGAPPYYSYDYWRQGTQVTVSS | low polyreactivity
QVQLVESGGGLVQAGGSLRLSSAASGFIFPAYAMGWYRQAPGKDRELVAAISKSGGRTYYADSVKGRFTISRDNAKNTVYLQMNSLKPEDTAVYYCNKDRYPREQYTWKYAWGYDYWGQGTQVTVSS | high polyreactivity
